Tested on: mutant form of α-Gal A expressed in HEK-293 cells
Assay: HEK assay (GLP HEK / Migalastat Amenability Assay): α-Gal A activity in lysates of transiently transfected HEK-293 cells incubated with or without 10 μM migalastat
Format: cell-based, human
Settings: for Absolute increase (% WT) / Relative increase: 10 μM migalastat versus baseline; for Baseline α-Gal A activity (% WT): absence of migalastat; for Baseline α-Gal A activity (% WT) / 10 μM migalastat α-Gal A activity (% WT): percentage of baseline wild-type α-Gal A activity; for Baseline α-Gal A activity (% WT) / Baseline α-Gal A activity / 10 μM migalastat α-Gal A activity / 10 μM migalastat α-Gal A activity (% WT): mean ± SEM; for Baseline α-Gal A activity / 10 μM migalastat α-Gal A activity: lysates of HEK-293 cells transiently transfected with the mutant form; for Baseline α-Gal A activity: incubated 5 days in absence of migalastat; for 10 μM migalastat α-Gal A activity: incubated 5 days with 10 μM migalastat; for 10 μM migalastat α-Gal A activity (% WT): with 10 μM migalastat, 5 days
Summary of the method: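 HEK-293 cells transiently transfected with mutant α-Gal A and incubated with or without 10 μM migalastat; lysate activity given as nmol free 4-MU released per mg protein per hour. Values are mean±SEM.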

Molecule	Absolute increase (% WT)	Relative increase	Baseline α-Gal A activity (% WT)	Baseline α-Gal A activity	10 μM migalastat α-Gal A activity	10 μM migalastat α-Gal A activity (% WT)
I367L (protein) MQLRNPELHLGCALALRFLALVSWDIPGARALDNGLARTPTMGWLHWERFMCNLDCQEEPDSCISEKLFMEMAELMVSEGWKDAGYEYLCIDDCWMAPQRDSEGRLQADPQRFPHGIRQLANYVHSKGLKLGIYADVGNKTCAGFPGSFGYYDIDAQTFADWGVDLLKFDGCYCDSLENLADGYKHMSLALNRTGRSIVYSCEWPLYMWPFQKPNYTEIRQYCNHWRNFADIDDSWKSIKSILDWTSFNQERIVDVAGPGGWNDPDMLVIGNFGLSWNQQVTQMALWAIMAAPLFMSNDLRHISPQAKALLQDKDVIAINQDPLGKQGYQLRQGDNFEVWERPLSGLAWAVAMINRQEIGGPRSYTLAVASLGKGVACNPACFITQLLPVKRKLGFYEWTSRLRSHINPTGTVLLQLENTMQMSLKDLL	21.9 % WT	1.2	79 ± 4 % WT	25211 ± 1640 nmol/mg/h	31257 ± 2256 nmol/mg/h	101 ± 9.3 % WT
A368G (protein) MQLRNPELHLGCALALRFLALVSWDIPGARALDNGLARTPTMGWLHWERFMCNLDCQEEPDSCISEKLFMEMAELMVSEGWKDAGYEYLCIDDCWMAPQRDSEGRLQADPQRFPHGIRQLANYVHSKGLKLGIYADVGNKTCAGFPGSFGYYDIDAQTFADWGVDLLKFDGCYCDSLENLADGYKHMSLALNRTGRSIVYSCEWPLYMWPFQKPNYTEIRQYCNHWRNFADIDDSWKSIKSILDWTSFNQERIVDVAGPGGWNDPDMLVIGNFGLSWNQQVTQMALWAIMAAPLFMSNDLRHISPQAKALLQDKDVIAINQDPLGKQGYQLRQGDNFEVWERPLSGLAWAVAMINRQEIGGPRSYTIGVASLGKGVACNPACFITQLLPVKRKLGFYEWTSRLRSHINPTGTVLLQLENTMQMSLKDLL	30.9 % WT	1.3	83.9 ± 4.7 % WT	31616 ± 2552 nmol/mg/h	42198 ± 2923 nmol/mg/h	114.8 ± 7.8 % WT
I367M (protein) MQLRNPELHLGCALALRFLALVSWDIPGARALDNGLARTPTMGWLHWERFMCNLDCQEEPDSCISEKLFMEMAELMVSEGWKDAGYEYLCIDDCWMAPQRDSEGRLQADPQRFPHGIRQLANYVHSKGLKLGIYADVGNKTCAGFPGSFGYYDIDAQTFADWGVDLLKFDGCYCDSLENLADGYKHMSLALNRTGRSIVYSCEWPLYMWPFQKPNYTEIRQYCNHWRNFADIDDSWKSIKSILDWTSFNQERIVDVAGPGGWNDPDMLVIGNFGLSWNQQVTQMALWAIMAAPLFMSNDLRHISPQAKALLQDKDVIAINQDPLGKQGYQLRQGDNFEVWERPLSGLAWAVAMINRQEIGGPRSYTMAVASLGKGVACNPACFITQLLPVKRKLGFYEWTSRLRSHINPTGTVLLQLENTMQMSLKDLL	22.3 % WT	1.3	76.7 ± 3.9 % WT	28430 ± 1769 nmol/mg/h	36008 ± 2249 nmol/mg/h	99 ± 6.7 % WT
